Measurements taken from publication PMC9478406, “AMPK-related protein kinase ARK5 regulates subcellular localization of RNA-binding protein hnRNP A1 during hypertonic stress” (The Journal of Biological Chemistry, 2022).

Biological target: T1, GST-tagged ARK5 wild type (AMPK-related protein kinase 5) (human, UniProt O60285 1-661)
T1 construct: ARK5 (aka NUAK1), UniProt ID O60285; Printed both as GST-ARK5 and ARK5-GST, so the end of the tag is not clear; also called NUAK1; GST-ARK5; source: U2OS, transfected, in lysate; U2OS, transfected, purified (Pierce GST spin purification kit)
T1 sequence (looked up): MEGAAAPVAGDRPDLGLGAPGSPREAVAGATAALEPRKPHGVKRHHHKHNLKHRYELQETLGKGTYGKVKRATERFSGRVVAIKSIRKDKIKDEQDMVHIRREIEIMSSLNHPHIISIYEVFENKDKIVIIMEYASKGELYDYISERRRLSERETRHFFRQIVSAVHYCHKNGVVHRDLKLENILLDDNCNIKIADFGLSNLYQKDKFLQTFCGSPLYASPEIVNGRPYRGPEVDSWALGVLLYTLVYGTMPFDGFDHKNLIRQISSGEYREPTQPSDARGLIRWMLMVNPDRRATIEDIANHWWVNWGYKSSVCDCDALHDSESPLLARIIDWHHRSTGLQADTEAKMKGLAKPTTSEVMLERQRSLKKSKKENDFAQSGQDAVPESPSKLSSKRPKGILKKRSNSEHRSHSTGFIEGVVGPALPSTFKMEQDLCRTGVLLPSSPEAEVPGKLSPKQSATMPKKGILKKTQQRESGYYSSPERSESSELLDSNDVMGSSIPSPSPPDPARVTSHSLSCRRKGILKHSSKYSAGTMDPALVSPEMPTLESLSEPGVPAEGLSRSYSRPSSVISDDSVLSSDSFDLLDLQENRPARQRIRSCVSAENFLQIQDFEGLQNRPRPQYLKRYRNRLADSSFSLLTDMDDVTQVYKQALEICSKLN
Test: co-IP; in vivo co-IP: U2OS cells cotransfected with GST-ARK5 (WT or KD) and FLAG-hnRNP A1 (WT, fragments or mutants); lysate in co-IP buffer (25 mM Tris-HCl pH 7.4, 150 mM NaCl, 0.5% Triton X-100), GSH Sepharose beads overnight at 4 °C, immunoblotting
Settings: partners not purified

B1: FLAG-tagged hnRNP A1 wild type (heterogeneous nuclear ribonucleoprotein A1) (natural protein, human, UniProt P09651-2 1-320, looked up)
chain: MSKSESPKEPEQLRKLFIGGLSFETTDESLRSHFEQWGTLTDCVVMRDPNTKRSRGFGFVTYATVEEVDAAMNARPHKVDGRVVEPKRAVSREDSQRPGAHLTVKKIFVGGIKEDTEEHHLRDYFEQYGKIEVIEIMTDRGSGKKRGFAFVTFDDHDSVDKIVIQKYHTVNGHNCEVRKALSKQEMASASSSQRGRSGSGNFGGGRGGGFGGNDNFGRGGNFSGRGGFGGSRGGGGYGGSGDGYNGFGNDGSNFGGGGSYNDFGNYNNQSSNFGPMKGGNFGGRSSGPYGGGGQYFAKPRNQGGYGGSSSSSSYGSGRRF
notes: hnRNP A1, full length, printed length 320 aa (residues 1-320); The printed residue numbers (1-320) fit the 320-residue isoform; also called FLAG-hnRNP A1 WT; A1-WT; source: U2OS, transfected, in lysate; U2OS, transfected, purified separately
B1: binds.
